{
  "source": "the nanobody polyreactivity screen of Harvey et al. (2022)",
  "data": [
    {"assay": "yeast display, Sf9 membrane polyspecificity reagent, FACS + sequencing; frameworks hold sequencing errors", "outline": "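Galactose-induced (36–48 hours) yeast carrying a synthetic nanobody display library were exposed to 10% biotinylated, detergent-solubilized Sf9 membrane reagent at 4 °C for 1 hour. FACS followed streptavidin microbead enrichment, using low and high (top ~1%) gates for expression (anti-HA) and reagent binding (streptavidin). Colony PCR, MiSeq 2 × 250 sequencing and CDR-length filtering followed. Labels for polyreactivity reflect the gate of origin.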", "values": [
      {"sequence": "QVQLVESGGGLVQAGGSLRLSCAASGRTFNYYAMGWYRQAPGKERELVAAISWSGTPTYYADSVKGRFTISRDHAKNTVYLQMNSLKPEDTAVYYCAAYLVSYPRGNYIRYDYWGQGTQVTVSS", "polyreactivity (PSR sort gate)": "low polyreactivity"},
      {"sequence": "QVQLVESGGGLVQAGGSLRLSCAASGGTILLYAMGWYRQAPGKERELVAGINSGGSTYYADSVKGRFTISRDNAKNTVYLQMNSLKPEDTAVYYCNARSTRYGGDYWGQGTQVTVSS", "polyreactivity (PSR sort gate)": "low polyreactivity"},
      {"sequence": "QVQLVESGGGLVQAGGSLRLSCAASGFTFKLNAMGWYRPAPGKERELVAAISWGGGTTYYADSVKGRFTISRDNAKNTVYLQMNSLKPEDTAVYYCAADGTGTYDYWGQGTQVTVSS", "polyreactivity (PSR sort gate)": "low polyreactivity"},
      {"sequence": "QVQLVESGGGLVQAGGSLRLSCAASGITFVGYAMGWYRQAPGKERELVAVINTSSSTYYADSVKGRFTISRDNAKNTVYLQLNSLKPEATAVYYCGVRGRYYYRRPQISYEYWGQGTQVTVSS", "polyreactivity (PSR sort gate)": "low polyreactivity"},
      {"sequence": "QFQLLESGGGLVHAGGSLLLSCAASGSTFVRYAMGWYRQAPAKERELVASISSSGSTYYADSVKGRFTISRDNAKNSDYLQMNSLKPEDTSVYYCAIQYGGRYGYWGQGTQVTVSS", "polyreactivity (PSR sort gate)": "low polyreactivity"},
      {"sequence": "QVQLGESGGGLVQAGGSLRLSCAASGSTFAKYVMGWYRQAPGKERELVAAISRRGSSTYYADSVKGRFTISRDNAKNTVYLQMNSLKPEDTAVYYCNAGSFSRKARRYDYWGQGTQVTVSS", "polyreactivity (PSR sort gate)": "high polyreactivity"},
      {"sequence": "QVQLVESGGCIDQAGGSLRLSCAASGSNFRGYAKGWYRQAPGKERELVAAITWSGGSTYYADSVKGRFTISRDKAKNTVSLQMNSLKPEDTAVYYCAAEYWDSDTYDYCGQGTQVTVSS", "polyreactivity (PSR sort gate)": "low polyreactivity"},
      {"sequence": "QVQLVESGGGLVQAGGSLRLSCAASGFIFRYAMGWYRQAPGKERELVAAISSSGGSTNYADSVKGRFTISRDNAKNTVYLQMNSLKPEDTAVYYCAARDGRQPRGYRLVTYYAPMYYWGQGTQVTVSS", "polyreactivity (PSR sort gate)": "high polyreactivity"},
      {"sequence": "QVQLVESGGGLVQAGGSLRLSCAASGRTFPSNAMGWYRQAPGKEREFVASITYSGGRTYYADSVKGRFTISRDNAKNTVYLQMNSLKPEDTAVYYCATARYRYHYYSWGQGTQVTVSS", "polyreactivity (PSR sort gate)": "high polyreactivity"},
      {"sequence": "QVQLVESGGGLVQAGGSLRLSCAASGSISVWYVMGWYRQAPGKEREFVAAIDYGGGSTYADSVKGRFTISRDNAKNTVYLQMNSLKPEDTAVYYCNADNWVYLYDYWGQGTQVTVSS", "polyreactivity (PSR sort gate)": "low polyreactivity"},
      {"sequence": "QVQLVESGGGLVQAGGSLRLSCAASGFTIRWYTMGWYRQAPGKERELVAAISRGGSTNYADSVKGRFTISRDNAKNTVYLQMNSLKPEDTAVYYCATSAPLVTSSGYGYWGQGTQVTVSS", "polyreactivity (PSR sort gate)": "high polyreactivity"},
      {"sequence": "QVQLVESGGGLVQAGGSLRLSCAASGSIFYSYAMGWYRQAPGKERELVAAISWDASTYYADSVKGRFTISRDNAKNTVYLQMKSLKTEDTAVYYCNADIPYYFVFDAYDYWGQGTQVTVSS", "polyreactivity (PSR sort gate)": "low polyreactivity"},
      {"sequence": "QVQLVESGGGLVQAGGSLRLSCAASGIIFGSYAMGWYRQAPGKERELVAAISRGTSTYYAVSVKGRFTISRDNAKNTVYLQMNSLKPEDSAVYYCAATRQQYGPHSRFVYVNYYYCGQGTQVTVSS", "polyreactivity (PSR sort gate)": "low polyreactivity"},
      {"sequence": "QVQLEESGGGLVQAGGSLRLSCAASGRIFYGYAMGWSRQAPGKERELVASISRRGSSTYYADSVKGRFTISRDNAKNTVYLQMNSLKPEDTAVYYCAAGYYPFNYWGQGTQVTVSS", "polyreactivity (PSR sort gate)": "high polyreactivity"},
      {"sequence": "QVQLVETGGGLVQAGGSLRLSCAPSGRTFYYYAMGWYRQAPGKERELVAAISYSVGSTYYADSVKGRFTISRDNAKTTVYLQMNSLKPEDTEVYYCAASRASSSRGEYYYWGQGTLVTVSS", "polyreactivity (PSR sort gate)": "low polyreactivity"},
      {"sequence": "QVQLVESGGGLVQAGGSLRLSCAASGRTFWTNAMGWYRQAPGKERELVAAISWTTGSTNYADSVKGRFTISRDNAKNTVYLQMNSLKPEDTAVYYCAAQTYCTFHTYYYWGQGTQVTVSS", "polyreactivity (PSR sort gate)": "low polyreactivity"},
      {"sequence": "QVQHEESGGGLVQAGGSLRLSCAASGSIFTPTPKGCYRQAPGKERELVAAISSSSDRTYYADSVKGRFTISRDNAKNTVYLEMNSLKPEDTAVYFCAAYAQKRYYWGQGTQVNVSS", "polyreactivity (PSR sort gate)": "high polyreactivity"},
      {"sequence": "QDQLVESGGGFVQAGGSLRLSCAASGITFPLYALGRYRQPPGKERELVAAISRNGGRTYYADSVKVRFTMSRDNAKNTVYLQMNSMKPEDTAVYYCAKVSRGSVSSPPDDYWGQGTQVTVSS", "polyreactivity (PSR sort gate)": "high polyreactivity"},
      {"sequence": "QVQLVESGGGLVQAGGSLRLSCAASGRIFSRYAMGWYRQAPGKERELVAAITWSVGSTYYADSVKGRFTISRDNAKNTVYLQMNSLKPEDTAVSYCAKLVRYYKPGYDYGGQGTQVTVSS", "polyreactivity (PSR sort gate)": "low polyreactivity"},
      {"sequence": "QVQLVESGGCLVQAGGSLRLSCAASGRTFINNAMGWYRQAPGKERELVAAISWDGGRTYYADSVKGRFTISRDNAKNTVYLQMNSLKPEDTAVYYCNAQPNYAYHGEDDYWGQGTQVTVSS", "polyreactivity (PSR sort gate)": "high polyreactivity"},
      {"sequence": "QVQLVESVGGLVQAGGSLRLSCADSGFTIYSYAMGWYRQAPGKERELVAAITQSGGSTYYADSVKGRFTISRDNAKNTVYLQMNSLKPEDTAVYYCAAVIYIDYDYGYYYWGQGTQVTVSS", "polyreactivity (PSR sort gate)": "low polyreactivity"},
      {"sequence": "QVQLVESGGGLVQAGGSLRLSCAASGIIFSWYAMGWYRQAPGKERELVASITASGGSTYYADSVKGRFTISRDTAKNTVSFQMHSLKPEDTAVYYCAVRYGHRSFASVYVEYDYWGQGTQVTVSS", "polyreactivity (PSR sort gate)": "low polyreactivity"},
      {"sequence": "QVQLVESGGGLVQAGGSLRLSCAASGIIFCRYAMGWYTQAPGKERELVAAISSSGSTYYADSVKGRFTISRDNATNTVYLQMNSLKPEDTAVYYCAAYSYPAGEYDYWGQGTQVTVSS", "polyreactivity (PSR sort gate)": "low polyreactivity"},
      {"sequence": "QVQLVESGGGLVQAGGSLRLSCAASGIIIITYAMGWYRQAPGKERELVAVISFSGGGTYADSVKGRFTISRDNAKNTVYLQMNSLKPEVTAVYYCAKYWLSALTLEDDYCGQGTQVTVSS", "polyreactivity (PSR sort gate)": "low polyreactivity"},
      {"sequence": "QVQLVESGGGLVQAGGILRLSCAASGRIFAYYAMGWSRQAPGKERELVAAISGGGGSTYYADSVKGRFTISRDNAKNTVYLQMNSLKPEDTAVYYCAAKSSRYDYYYWGQGTQVTVSS", "polyreactivity (PSR sort gate)": "high polyreactivity"},
      {"sequence": "QVQLVESGGGLVQAGGSLRLSCAASGRIFFNYAMGWYRQAPGKVRELVASITWRGGNTYYADSVKGRFTISRDNAKNTVYLQMNSLKPEDTAVYYCAASIRRAGRTYYYWGQGTQVTVSS", "polyreactivity (PSR sort gate)": "high polyreactivity"},
      {"sequence": "QVQLVESGGGLVQAGGSLRLSCAASGLIFYYYTMGWYIQAPGKVRELVAAISSAGSTYYADSVKGRFTISRDNAKNTVYLQMNSLKPEDTEVYYCATRSQAQYTRYYGYRQFYYWGQGTQVTVSS", "polyreactivity (PSR sort gate)": "high polyreactivity"},
      {"sequence": "QVQLVESGGGLGQAGGSLRLSCAASGIIFVENAMGWNRQAPGKERELVATITSGDTTNYADSVKGRFTISRDNAKNTVYLQMNSLKPEDTAVYYCKKVVPDDAYIFAYDYWGQGTQVTVSS", "polyreactivity (PSR sort gate)": "low polyreactivity"},
      {"sequence": "QVQLVESGGGLVQAGGSLRLSCAASGSTFVYYAMGWYRQAPGKERELVAAITGSVDSTYYADSVKGRFTISRDNAKNTVYLQMNSLNPEDTAVYYCAAVTYSTYWGQGTQVTVSS", "polyreactivity (PSR sort gate)": "low polyreactivity"},
      {"sequence": "QVQLVESGGGLVQAGGSLRLICAASGGTFYPYTMGGYRQAPGKERELVAAISRRSGRTYYADSVKGRFTISRDNAKNTVYLQMNSLKPEDTAVYYCNADGYTRAFDYWGQGTQVTVSS", "polyreactivity (PSR sort gate)": "high polyreactivity"},
      {"sequence": "QVQLVESGGGLVQAGGSLRLSCAASGRTFKTYTMGWYRQEPGKERELVAVISSGGGSTNYADSVKGRFTISRDNAKNTVYLQMNSLKPEDTAVYYCAARKTGRPKYRYDYWGQGTQVTVSS", "polyreactivity (PSR sort gate)": "low polyreactivity"},
      {"sequence": "QVQLVESGGGLVQAGGRLRLSCAASGRTFGVYVMGWYRQAPGKERELVAAISSSGGLTYYADSVKGRFTISRDNAKNTVYLQMNSMKPEDTAVYYCNAVRRREERDGPPNPMDYWGQGTQVTVSS", "polyreactivity (PSR sort gate)": "high polyreactivity"},
      {"sequence": "QVQHVESGGGLVQAGGSLRLSCAASGYTFRSNTMGWYRQAPGKERELVAAISGRGSSTYYADSVKGRFTISRDNAKNTVYLQMNSLKPEDTAVYYCAAQSKYYQYYSWGQGTQVTVSS", "polyreactivity (PSR sort gate)": "high polyreactivity"},
      {"sequence": "QVQLVESGGGLVQAGGSLRLSCAASGSTFTPYGMGWYRKAPGKERELVAAITVSGGRTYDADSVKGRFTISRDNAKNTVYLQMNSLKPEDTAVYYCAAVYLRGDGEYDYWGQGTQVTVSS", "polyreactivity (PSR sort gate)": "low polyreactivity"},
      {"sequence": "QVQLEESGGGLVQAGGRLRLSCAASGGTFRNNAMGWDRQAPGKEREVVAAISSSGTSTYYADSVKGRFTISRDNAKNTVYLQMNSLKPEDTAVYYCNADALGYPWWDHMDYWGQGTQVTVSS", "polyreactivity (PSR sort gate)": "low polyreactivity"},
      {"sequence": "QVQLVESGGGLVQAGGSLRLSCAASGSIFGRNTMGWYRPAPGKERELVAAISSGGRTYYADSVKGRFTISRDNAKITVYLQINSLKPEDTAVYYCAAALRRRRADFDYWGQGTQVTVSS", "polyreactivity (PSR sort gate)": "high polyreactivity"},
      {"sequence": "QVQLVESGGGLVQAGGSLRISSAASALIIYDNMGRYRQAPGKERELVAAISSSGGSTSYADSVKGRFTFSRDNANNTVYLQMNSLKPEDTAVYYSAADSYPAYLGFVGFDYWGQGTQVTVSS", "polyreactivity (PSR sort gate)": "low polyreactivity"},
      {"sequence": "QVQLVESGGGLVQAGGSLRLSCAASGFIFWYYAMGWSRQAPGKERELVAAISYGGGSTYYADSVKGRFTISRDNAKNTVYLQMNSLKPEDTAVYYCAAAPRWKASRLYYWGQGTQVTVSS", "polyreactivity (PSR sort gate)": "high polyreactivity"},
      {"sequence": "QVQLVESGGGLVQARGSLRLSCAASGSIFNLYAMGWYRQAPGKEREFVASISYSGGSTYYADSVKGRFTISRDNAKNTVYLQINSLKPEDTAVYYCNARLEVYGQRYDYWGQGTQVTVSS", "polyreactivity (PSR sort gate)": "low polyreactivity"},
      {"sequence": "QVQLVESGGGLVQAGGSLRLSCSASGSTFFSYAMGWYRQAPGKERELVATITSGGSTFADSVKWRFTISRDNAKNTVYLQMNSLKPEDTAVYYCNTDVVDCLFYHCECRFNYLGQGTQVTVSS", "polyreactivity (PSR sort gate)": "low polyreactivity"},
      {"sequence": "QVQLVESGGGLVQAGGSLRLSCAASGLTFFTYVMGWYRQAPGKERELVASISERGGSTFYADSVKGRFTISRDNAKNTVYLQMNSLKPEDTAVYYCATVSQSFKYRYRWRAAASDYWGQGTQVTVSS", "polyreactivity (PSR sort gate)": "high polyreactivity"},
      {"sequence": "QVQLVESGGGLVQAGGSLRLSSAASGSIFGDYVMGWYRPAPGKERELVAAINRGGSTYYADSVKGRFTISRDNAKNTVYLQMNSLKPEDTAVYDCAKDYHNYPSFGVDYCGQGTQVTVSS", "polyreactivity (PSR sort gate)": "low polyreactivity"},
      {"sequence": "QVQLVESGGGLVQAGGSLRLSCAASGFTFYRYAMGWYRQAPGKERELVAAISWSGGTTYYADSVKGRFTISRDNAKNTVYLQMNSLKPEDTAVYYCNARFIARSGYKVDYDYWGQGTQVTVSS", "polyreactivity (PSR sort gate)": "high polyreactivity"}
    ]}
  ]
}
